Data published in patent publication US20210253713A1 (ABEXXA BIOLOGICS, published 2021).

How the values were obtained:
[1] = target: T1, HLA-E/… (human, UniProt P13747 22-297; P61769 21-119, limits assumed); assay: ELISA, antibody captured on Protein-A wells, soluble biotin-labeled HLA-E/peptide complex, SA-HRP
T1 construct: Soluble biotin-labeled control complex; also called control HLA-E/peptide complex
Procedure: (§1) The isolated scFv VL and VH domains were cloned into pFUSE-hIgG1-Fc and pFUSE2-CLIg-hk plasmids, respectively and plasmid DNA was prepared using standard protocol and used to co-transfect a 200 ml culture of Expi-293 cells. Following the manufacturer's instructions, supernatants were harvested at day 5 post-transfection for antibody purification using Protein-A coated beads. Next, the purified mouse-human chimeric IgG1 antibody, MAB-031 and the fully human antibody, MAB-036 were characterized for binding specificity and sensitivity by ELISA. In brief, Protein-A coated 96-wells were used to capture either MAB-031 or MAB-036 added to wells at a concentration of 10 ug/ml. After incubation for 60 min, wells were washed using PBS (pH 7.4)+0.1% Tween-20 and soluble biotin-labeled HLA-E/peptide complexes were added to individual wells at concentrations ranging from 0.25 to 0.0625 ug/ml. Wells were washed 3× using a solution of PBS+Tween-20 and then streptavidin-Horseradish peroxidase (SA-HRP) conjugate was added to wells and incubated for 30 min. One final wash was done and the substrate solution containing 3,3′,5,5′-tetramethylbenzidine (TMB) was added to wells and developed for 10 min before adding stop solution (0.16M sulfuric acid) to terminate the reaction.

[2] = target: T2, HLA-E/… (human, UniProt P13747 22-297; P61769 21-119, limits assumed); assay: as above; remark: listed apart in the source
T2 construct: Soluble biotin-labeled control complex; also called control HLA-E/peptide complex
Procedure: as §1

[3] = target: T3, HLA-E/… (human, UniProt P13747 22-297; P61769 21-119, limits assumed); assay: ELISA, biotin-labeled complex on neutravidin plates, soluble bivalent IgG1, anti-human-HRP
T3 construct: Biotin-labeled control complex, used in both ELISA formats; also called control HLA-E/peptide complex
Procedure: (§2) To further evaluate the binding specificity and detection sensitivity of MAB-031 and MAB-036, a second ELISA was performed. For this assay, neutravidin coated plates were used to capture biotin-labeled HLA-E/peptide complexes. Because the HLA-E/peptide complexes have a single biotin molecule conjugated to the c-terminal end BirA tag, the immobilization of these complexes results in having the molecules lined up in a homogenous directional orientation. After incubation, unbound biotin-labeled HLA-E/peptide complexes are removed by rinsing the plate in a PBS+tween-20 buffer solution. MAB31 and MAB36 were then added to wells at concentrations that ranged from 1 ug/ml to 0.0001 ug/ml. Incubation was carried out for 1 hr, wells were rinsed and bound MAB was detected using a 1:2500 dilution of a goat anti-human-HRP conjugate. The assay was developed by adding the TMB substrate solution was added to wells and developed for 10 min before adding stop solution to terminate the reaction.

[4] = target: T4, HLA-E/… (human, UniProt P13747 22-297; P61769 21-119, limits assumed); assay: as above
T4 construct: Biotin-labeled control complex captured on neutravidin plates through a C-terminal BirA tag; also called control HLA-E/peptide complex
Procedure: as §2

[5] = target: T5, HLA-E/… (human, UniProt P13747 22-297; P61769 21-119, limits assumed); assay: as above; remark: listed apart in the source
T5 construct: Biotin-labeled control complex captured on neutravidin plates through a C-terminal BirA tag; also called control HLA-E/peptide complex
Procedure: as §2

[6] = target: T6, HLA-E/… (human, UniProt P13747 22-297; P61769 21-119, limits assumed); assay: as above; remark: listed apart in the source
T6 construct: Biotin-labeled control complex captured on neutravidin plates through a C-terminal BirA tag; also called control HLA-E/peptide complex
Procedure: as §2

[7] = target: T7, HLA-E/… (human, UniProt P13747 22-297; P61769 21-119, limits assumed); assay: as above; remark: listed apart in the source
T7 construct: Biotin-labeled control complex captured on neutravidin plates through a C-terminal BirA tag; also called control HLA-E/peptide complex
Procedure: as §2

Binder | binding result [1] | binding result [2] | binding result [3] | binding result [4] | binding result [5] | binding result [6] | binding result [7]
MAB-031 (anti-HLA-E/…) (antibody, V domains shown, also called MAB31; MAB-31) VH: QVQLQQSGPELVKPGASVKMSCKASGYTFTDYVISWVKQRTGQGLEWIGEIYPGNNTTYYNDNFRGKATLTVDKSSSTAYMQLSSLTSEDSAVYYCARESLGIYYGSTYKGLYAMDYWGQGTTLTVSS VL: QIVLTQSPAIMSASPGEKVTITCSASSSVSYMHWFQQKPGTSPKLWIYSTSNLASGVPARFSGSGSGTSYSLTISRMEAEDAATYYCQQRSSYPPTFGAGTKLELKR | no binding | no binding | no binding (tested: 1 ug/ml to 0.0001 ug/ml) | no binding (tested: 1 ug/ml to 0.0001 ug/ml) | no binding (tested: 1 ug/ml to 0.0001 ug/ml) | no binding (tested: 1 ug/ml to 0.0001 ug/ml) | no binding (tested: 1 ug/ml to 0.0001 ug/ml)
MAB-036 (anti-HLA-E/…) (antibody, V domains shown, Full-length human IgG1 (pFUSE vector system, human kappa); CDRs of R4Clone #1 mutated light chain were grafted onto trastuzumab VH and VL frameworks; also called MAB36) VH: EVQLVESGGGLVQPGGSLRLSCAASGFTFSSYAIHWVRQAPGKGLEWVARIAYGGGATRYADSVKGRFTISADTSKNTAYLQMNSLRAEDTAVYYCAKGLSNFDYWGQGTLVTVSS VL: DIQMTQSPSSLSASVGDRVTITCRASQSISSYLNWYQQKPGKAPKLLIYNAAFLYSGVPSRFSGSRSGTDFTLTISSLQPEDFATYYCQQAATYPATFGQGTKVEIK | no binding | no binding | no binding (tested: 1 ug/ml to 0.0001 ug/ml) | no binding (tested: 1 ug/ml to 0.0001 ug/ml) | no binding (tested: 1 ug/ml to 0.0001 ug/ml) | no binding (tested: 1 ug/ml to 0.0001 ug/ml) | no binding (tested: 1 ug/ml to 0.0001 ug/ml)
